The values below come from the supplement of paper PMC5998384.

Data set [1] deals with HeLa Kyoto. The data set is described as follows: solubility in G1/S (NP-40 vs SDS abundance) (log2 ratio); higher = more soluble. To be noted: cell cycle stage: G1/S.
Data set [2] relates to HeLa Kyoto. The data set is described as follows: solubility change mitosis vs G1/S (difference of NP-40 vs SDS log2 ratios) (log2 ratio difference); higher = more soluble in mitosis.
In data set [3] the test system is HeLa Kyoto. Briefly: thermal stability score vs G1/S (z-score of summed log2 fold changes over temperatures); higher = more thermally stable than in G1/S.
The mark [4] stands for this setting: cell cycle stage: early G1 (4.5 h after nocodazole release).
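For solubility change mitosis vs G1/S (difference of NP-40 vs SDS log2 ratios) in this document: synchronized HeLa Kyoto cells (double thymidine block for G1/S, nocodazole release for mitosis), protein amounts in NP-40 versus SDS lysates quantified by mass spectrometry, three biological replicates.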
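For solubility in G1/S (NP-40 vs SDS abundance) in this document: HeLa Kyoto cells arrested at G1/S by double thymidine block, proteins quantified by TMT10plex mass spectrometry in mild NP-40 versus SDS extracts, three biological replicates.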
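For thermal stability score vs G1/S (z-score of summed log2 fold changes over temperatures) in this document: synchronized HeLa Kyoto cells, proteins quantified by TMT10plex mass spectrometry, three biological replicates, mitosis taken 0.5 h after nocodazole release, G1/S directly after double thymidine block.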

In the case of “MSENLDKSNVNEAGKSKSNDSEEGLEDAVEGADEALQKAIKSDSSSPQRVQRPHSSPPRFVTVEELLETARGVTNMALAHEIVVNGDFQIKPVELPENSLKKRVKEIVHKAFWDCLSVQLSEDPPAYDHAIKLVGEIKETLLSFLLPGHTRLRNQITEVLDLDLIKQEAENGALDISKLAEFIIGMMGTLCAPARDEEVKKLKDIKEIVPLFREIFSVLDLMKVDMANFAISSIRPHLMQQSVEYERKKFQEILERQPNSLDFVTQWLEEASEDLMTQKYKHALPVGGMAAGSGDMPRLSPVAVQNYAYLKLLKWDHLQRPFPETVLMDQSRFHELQLQLEQLTILGAVLLVTFSMAAPGISSQADFAEKLKMIVKILLTDMHLPSFHLKDVLTTIGEKVCLEVSSCLSLCGSSPFTTDKETVLKGQIQAVASPDDPIRRIMESRILTFLETYLASGHQKPLPTVPGGLSPVQRELEEVAIKFARLVNYNKMVFCPYYDAILSKILVRS [TCP11L1]”, the “solubility in G1/S (log2)” value with HeLa Kyoto [1] was found to be 0.346. For the same sequence, the “solubility change mitosis (log2)” value in the data set with HeLa Kyoto [2] turned out to be 0.1. The thermal stability score with HeLa Kyoto [3] (setting [4]) is 1.37; with HeLa Kyoto [3] (cell cycle stage: mitosis), 1.4.

Turning to “MSGPLEGADGGGDPRPGESFCPGGVPSPGPPQHRPCPGPSLADDTDANSNGSSGNESNGHESRGASQRSSHSSSSGNGKDSALLETTESSKSTNSQSPSPPSSSIAYSLLSASSEQDNPSTSGCSSEQSARARTQKELMTALRELKLRLPPERRGKGRSGTLATLQYALACVKQVQANQEYYQQWSLEEGEPCSMDMSTYTLEELEHITSEYTLQNQDTFSVAVSFLTGRIVYISEQAAVLLRCKRDVFRGTRFSELLAPQDVGVFYGSTAPSRLPTWGTGASAGSGLRDFTQEKSVFCRIRGGPDRDPGPRYQPFRLTPYVTKIRVSDGAPAQPCCLLIAERIHSGYEAPRIPPDKRIFTTRHTPSCLFQDVDERAAPLLGYLPQDLLGAPVLLFLHPEDRPLMLAIHKKILQLAGQPFDHSPIRFCARNGEYVTMDTSWAGFVHPWSRKVAFVLGRHKVRTAPLNEDVFTPPAPSPAPSLDTDIQELSEQIHRLLLQPVHSPSPTGLCGVGAVTSPGPLHSPGSSSDSNGGDAEGPGPPAPVTFQQICKDVHLVKHQGQQLFIESRARPQSRPRLPATGTFKAKALPCQSPDPELEAGSAPVQAPLALVPEEAERKEASSCSYQQINCLDSILRYLESCNLPSTTKRKCASSSSYTTSSASDDDRQRTGPVSVGTKKDPPSAALSGEGATPRKEPVVGGTLSPLALANKAESVVSVTSQCSFSSTIVHVGDKKPPESDIIMMEDLPGLAPGPAPSPAPSPTVAPDPAPDAYRPVGLTKAVLSLHTQKEEQAFLSRFRDLGRLRGLDSSSTAPSALGERGCHHGPAPPSRRHHCRSKAKRSRHHQNPRAEAPCYVSHPSPVPPSTPWPTPPATTPFPAVVQPYPLPVFSPRGGPQPLPPAPTSVPPAAFPAPLVTPMVALVLPNYLFPTPSSYPYGALQTPAEGPPTPASHSPSPSLPALAPSPPHRPDSPLFNSRCSSPLQLNLLQLEELPRAEGAAVAGGPGSSAGPPPPSAEAAEPEARLAEVTESSNQDALSGSSDLLELLLQEDSRSGTGSAASGSLGSGLGSGSGSGSHEGGSTSASITRSSQSSHTSKYFGSIDSSEAEAGAARGGAEPGDQVIKYVLQDPIWLLMANADQRVMMTYQVPSRDMTSVLKQDRERLRAMQKQQPRFSEDQRRELGAVHSWVRKGQLPRALDVMACVDCGSSTQDPGHPDDPLFSELDGLGLEPMEEGGGEQGSSGGGSGEGEGCEEAQGGAKASSSQDLAMEEEEEGRSSSSPALPTAGNCTS [PER1]”, the “solubility in G1/S (log2)” value with HeLa Kyoto [1] is 0.0364. For the same sequence, in the data set on HeLa Kyoto [2], the “solubility change mitosis (log2)” value is -0.183. For the same sequence, the thermal stability score turned out to be 0.55 in the data set with HeLa Kyoto [3] (setting [4]) and 0.377 in the data set on HeLa Kyoto [3] (cell cycle stage: mitosis).

In the case of “MSKISEAVKRARAAFSSGRTRPLQFRIQQLEALQRLIQEQEQELVGALAADLHKNEWNAYYEEVVYVLEEIEYMIQKLPEWAADEPVEKTPQTQQDELYIHSEPLGVVLVIGTWNYPFNLTIQPMVGAIAAGNSVVLKPSELSENMASLLATIIPQYLDKDLYPVINGGVPETTELLKERFDHILYTGSTGVGKIIMTAAAKHLTPVTLELGGKSPCYVDKNCDLDVACRRIAWGKFMNSGQTCVAPDYILCDPSIQNQIVEKLKKSLKEFYGEDAKKSRDYGRIISARHFQRVMGLIEGQKVAYGGTGDAATRYIAPTILTDVDPQSPVMQEEIFGPVLPIVCVRSLEEAIQFINQREKPLALYMFSSNDKVIKKMIAETSSGGVAANDVIVHITLHSLPFGGVGNSGMGSYHGKKSFETFSHRRSCLVRPLMNDEGLKVRYPPSPAKMTQH [ALDH3A1]”, in the data set on HeLa Kyoto [1], the “solubility in G1/S (log2)” value is 0.316. Also, in the data set on HeLa Kyoto [2], the “solubility change mitosis (log2)” value is -0.153. In addition, the thermal stability score is 0.258 in the data set with HeLa Kyoto [3] (setting [4]) and -0.475 in the data set with HeLa Kyoto [3] (cell cycle stage: mitosis).

In the case of “MSRPVRNRKVVDYSQFQESDDADEDYGRDSGPPTKKIRSSPREAKNKRRSGKNSQEDSEDSEDKDVKTKKDDSHSAEDSEDEKEDHKNVRQQRQAASKAASKQREMLMEDVGSEEEQEEEDEAPFQEKDSGSDEDFLMEDDDDSDYGSSKKKNKKMVKKSKPERKEKKMPKPRLKATVTPSPVKGKGKVGRPTASKASKEKTPSPKEEDEEPESPPEKKTSTSPPPEKSGDEGSEDEAPSGED [NUCKS1]”, in the data set with HeLa Kyoto [1], the “solubility in G1/S (log2)” value turned out to be 0.444. Further, the “solubility change mitosis (log2)” value in the data set on HeLa Kyoto [2] was 0.307. Moreover, the thermal stability score is -0.14 in the data set on HeLa Kyoto [3] (setting [4]) and 1.15 in the data set on HeLa Kyoto [3] (cell cycle stage: mitosis).

Take “MSSILPFTPPIVKRLLGWKKGEQNGQEEKWCEKAVKSLVKKLKKTGQLDELEKAITTQNVNTKCITIPRSLDGRLQVSHRKGLPHVIYCRLWRWPDLHSHHELRAMELCEFAFNMKKDEVCVNPYHYQRVETPVLPPVLVPRHTEIPAEFPPLDDYSHSIPENTNFPAGIEPQSNIPETPPPGYLSEDGETSDHQMNHSMDAGSPNLSPNPMSPAHNNLDLQPVTYCEPAFWCSISYYELNQRVGETFHASQPSMTVDGFTDPSNSERFCLGLLSNVNRNAAVELTRRHIGRGVRLYYIGGEVFAECLSDSAIFVQSPNCNQRYGWHPATVCKIPPGCNLKIFNNQEFAALLAQSVNQGFEAVYQLTRMCTIRMSFVKGWGAEYRRQTVTSTPCWIELHLNGPLQWLDKVLTQMGSPSIRCSSVS [SMAD3]”: the “solubility in G1/S (log2)” value in the data set on HeLa Kyoto [1] was -0.184. Besides, the “solubility change mitosis (log2)” value in the data set with HeLa Kyoto [2] worked out at 0.0397. The values for the thermal stability score with HeLa Kyoto [3] (setting [4]) and in the data set with HeLa Kyoto [3] (cell cycle stage: mitosis) were -0.574 and -1.15, respectively.
